The target in assay [1] is T1, RON (human, UniProt Q04912). Briefly: ELISA.
Assay [2] has as its target T1, RON. The experiment in a line: SPR.
Assay [3] concerns the target T1, RON. The experiment in a line: ELISA. This is another data set of the same source. In general terms: ELISA stands for enzyme-linked immunosorbent assay.
For assay [4], the target named is T2, CD80 (human, UniProt P33681).
T2 chain: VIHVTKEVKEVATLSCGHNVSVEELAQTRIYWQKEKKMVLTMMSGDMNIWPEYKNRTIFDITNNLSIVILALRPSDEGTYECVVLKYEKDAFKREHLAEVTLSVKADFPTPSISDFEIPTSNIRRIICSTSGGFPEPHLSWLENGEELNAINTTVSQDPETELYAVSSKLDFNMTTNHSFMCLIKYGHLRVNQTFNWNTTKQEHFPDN
Briefly: ELISA.

For assay [5], the target named is T3, HGF (human, UniProt P14210). Briefly: competition.
The target of assay [6] is T3, HGF. Briefly: ELISA.
Assay [7] deals with T3, HGF. Briefly: ELISA. This is another data set of the same source.
Assay [8] addresses T3, HGF. The experiment in a line: SPR. Background: Surface plasmon resonance follows binding to a sensor surface in real time, without labels.
Assay [9] has as its target CD22 (human, UniProt P20273). Briefly: ELISA.

Experimental findings from patent US9029508 (dated 2015) are described below.

Values joined by “and” are separate entries in the source; they are usually repeats but may differ in a detail not shown here. Identical values can stand only once. Like-named read-outs stand apart in the source and are kept apart here.

T3 sequence (P14210 32-728): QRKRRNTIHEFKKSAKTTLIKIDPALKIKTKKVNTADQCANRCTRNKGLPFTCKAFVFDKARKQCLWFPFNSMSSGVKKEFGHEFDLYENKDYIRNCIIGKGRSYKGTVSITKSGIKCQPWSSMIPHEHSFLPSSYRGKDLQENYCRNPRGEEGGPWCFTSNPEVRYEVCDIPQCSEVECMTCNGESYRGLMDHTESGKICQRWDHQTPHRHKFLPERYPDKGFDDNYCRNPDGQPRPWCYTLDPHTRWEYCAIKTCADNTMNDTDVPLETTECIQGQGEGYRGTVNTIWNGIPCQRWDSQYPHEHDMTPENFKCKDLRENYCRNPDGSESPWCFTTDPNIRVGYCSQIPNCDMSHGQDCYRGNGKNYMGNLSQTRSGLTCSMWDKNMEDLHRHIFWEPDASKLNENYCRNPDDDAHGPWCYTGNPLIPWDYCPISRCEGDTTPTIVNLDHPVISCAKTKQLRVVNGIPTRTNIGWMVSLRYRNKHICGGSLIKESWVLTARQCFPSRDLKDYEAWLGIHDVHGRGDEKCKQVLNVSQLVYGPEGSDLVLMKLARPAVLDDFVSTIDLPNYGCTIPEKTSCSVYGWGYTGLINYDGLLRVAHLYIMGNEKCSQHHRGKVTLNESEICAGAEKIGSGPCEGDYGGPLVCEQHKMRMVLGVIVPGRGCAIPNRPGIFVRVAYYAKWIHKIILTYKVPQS

B1: AB005 (antibody, V domains shown)
VH: EVQLVQSGGGLVKPGGSLRLSCAASGFTFSSYAMHWVRQAPGKGLEWVAVISYDGSNKYYADSVKGRFTISRDNSKNTLYLQMNSLRAEDTAVYYCARFSGWPNNYYYYGMDVWGQGTTVTVSS
VL: DVVMTQSPLSLPVTPGEPASISCRSSQSLLHSNGFNYVDWYLQKPGQSPHLLIYFGSYRASGVPDRFSGSGSGTDFTLKISRVEAEDVGVYYCMQALQTPPWTFGQGTKVEIRR
The term EC50 denotes the midpoint of the concentration-response curve. Higher therefore signals weaker potency. One may read the Kd as a measure of binding affinity in units of concentration. For the molecule B1, the EC50 in [1] is 0.26 nM and 0.21 nM; in assay [3], 1.6 nM and 0.7 nM and 1.3 nM. In addition, the Kd in [2] was 20.2 nM and 20.1 nM.

B2: AB007 (antibody, V domains shown)
VH: QVQLQESGPGLVKPSETLSLTCAVSGGSISGGYGWGWIRQPPGKGLEWIGSFYSSSGNTYYNPSLKSQVTISTDTSKNQFSLKLNSMTAADTAVYYCVRDRLFSVVGMVYNNWFDVWGPGVLVTVSS
VL: ESALTQPPSVSGAPGQKVTISCTGSTSNIGGYDLHWYQQLPGTAPKLLIYDINKRPSGISDRFSGSKSGTAASLAITGLQTEDEADYYCQSYDSSLNAQVFGGGTRLTVLG
For the molecule B2, the EC50 in assay [4] turned out to be 0.77 nM. This counts as sub-nanomolar.

B3: DVD045 HGF arm (antibody, V domains shown)
VH: QVQLVESGGGLVKPGGSLRLSCAASGFTFSDYYMSWIRQAPGKGLEWVSYISSSGSTIYYADSVKGRFTISRDNAKNSLYLQMNSLRAEDTAVYYCARDEYNSGWYVLFDYWGQGTLVTVSS
VL: DIQMTQSPSSVSASVGDRVTITCRASQGISSWLAWYQQKPGKAPNLLIYEASSLQSGVPSRFGGSGSGTDFTLTISSLQPEDFATYYCQQANGFPWTFGQGTKVEIKR
modifications: DVD-Ig inner
Usually IC50 stands for the concentration needed to halve the response being measured. With B3, the half-inhibitory concentration (IC50) in assay [5] was above 100 nM. In addition, the concentration giving a half-maximal response (EC50) is above 100 nM in [6] and 185 nM in [7]. The molecule further gave a Kd in [8] of 0.901 nM.

B4: AB008 (antibody, V domains shown)
VH: QVQLVQSGAEVKKPGSSVKVSCKASGYTFTSYWLHWVRQAPGQGLEWIGYINPRNDYTEYNQNFKDKATITADESTNTAYMELSSLRSEDTAFYFCARRDITTFYWGQGTTVTVSS
VL: DIQLTQSPSSLSASVGDRVTMSCKSSQSVLYSANHKNYLAWYQQKPGKAPKLLIYWASTRESGVPSRFSGSGSGTDFTFTISSLQPEDIATYYCHQYLSSWTFGGGTKLEIKR
Consider B4, for which the EC50 in assay [9] is 3.44 nM. This lies in the single-digit nanomolar range.
